We go through 2 molecules from article PMC2196205.

One may read the Kd as the equilibrium constant for the complex coming apart. Higher therefore signals weaker binding.

For data set [1], the target named is T1, Zif268 (mouse, UniProt P08046 333-421). Description: ELISA.
The target in data set [2] is T1, Zif268. Description: SPR. On the technique in general: Surface plasmon resonance follows binding to a sensor surface in real time, without labels.
The target of data set [3] is T1, Zif268. The data set is described as follows: SPR. This is another data set of the same source.

B1: ZifDNA (dsDNA)
DNA 1: GGCATAGTGCGTGGGCGTTAGC
DNA 2: GCTAACGCCCACGCACTATGCC
B1: the results for the Kd with Zif268 [1] and in the data set with Zif268 [2] were 12 ± 5 nM and 5.3 ± 1.5 nM, respectively.
With GGTTAGGGTTAGGGTTAGGGTTAGGGTTAG (structured_DNA) [Htelo], the binding result with Zif268 [3] was “no binding”.
